Experimental data reported in patent US20230303666A1 (published 2023).

B1: SR6c3 (VHH)
VHH: EVQLVESGGGLVQAGDSLRLSCAASGDCHVLWRMGWFRQAPGKEREFVAAISLDGQFTNYADSVRGRFSISADSAKNTVYLQMNSLKPEDTAVYYCAALPFLDYWGQGTQVTVSS
B2: SR6v15.d (VHH)
chain: EVQLVESGGGLVQAGDSLRLSCAASGDSYILWRMGWFRQAPGKEREFVAAISLDGQFTNYADSVRGRFSISADSAKYTVYLQMNSLKPEDTAVYYCAALPFLDYWGQGTQVTVSSEVQLVESGGGLVQAGDSLRLSCAASGDSYILWRMGWFRQAPGKEREFVAAISLDGQFTNYADSVRGRFSISADSAKYTVYLQMNSLKPEDTAVYYCAALPFLDYWGQGTQVTVSS

Target: SARS-CoV-2 S on pseudotyped lentivirus (pCMV-SARS2deltaC-gp41) (SARS-CoV-2, UniProt P0DTC2 14-1246)
Test: cell-based or functional assay

| Binder | IC50 of neutralization of pseudotyped lentiviral infection [nM] | IC50 of pseudovirus neutralization [nM] | pseudovirus neutralization potency, fold increase against monomeric SR6v15 [fold] |
| --- | --- | --- | --- |
| B1 | 62.7 |  |  |
| B2 |  | 0.329 | > 10 |
